This passage reports OD450 results from patent publication US20200277359A1.

The assay has as its target Recombinant CHIKV E2 ectodomain protein (corresponding to the CHIKV-LR2006 strain) (Chikungunya virus strain LR2006). In words: ELISA on coated E2 ectodomain.

murine CHK-152 (antibody): the OD450 was less than 0.1 od.
